# Experimental data reported in patent US20240327848.
# Molecular target: human serum albumin (HSA) (Homo sapiens) (UniProt P02768)
# Test: ELONA
# Conditions: Nap-dU at all positions marked 6 (n); bead-based ELISA, buffer SB18 (5 mM MgCl2), 37 C
row,Sequence,Kd [nM]
1,CTCTCCCAGGTCGAGCTGTACGCGTGTGTGACCTG [AL003],2.24
2,TCCCAGGTCGAGCTGTACGCGTGTGTGACC [AL005],14.7
3,CAGGTCGAGCTGTACGCGTGTGTGACCTG [AL006],19
4,CTCTCCCAGGTCGAGCTGTACGCGTGTGTGACCTGACGTG [AL002],20.7
